Here are results for 40 sequences from the nanobody polyreactivity screen of Harvey et al. (2022).

The nature of this data set: yeast display, Sf9 membrane polyspecificity reagent, FACS + sequencing; frameworks hold sequencing errors. The procedure, abridged:
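In a synthetic yeast display library (Saccharomyces cerevisiae BJ5465), nanobody expression was induced with galactose for 36–48 hours. FACS gates were set low and high (top ~1%) using anti-HA fluorescence for expression and streptavidin fluorescence for binding of the Sf9 membrane reagent. Each polyreactivity label is drawn from the gate of origin.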
On to “QVQLVESGGGLVQAGGSLRLSCAASGRTFYGYAMGWYRQAPGKERELVAAITQRGVSTYADSVKGRFTISRDNAKNTVYLQMNSLKPEDTAVYYCAAEYYAYPYGDDYDYWGQGTQVTVSS”, for which the “polyreactivity (PSR sort gate)” value is “low polyreactivity”.

For the sequence “QVQLVESGGGLVQAGGSLRLSCAASGRTFYGYAMGWYRQAPGKERELVAAITSSGGSTYYADSVKGRFTISRDNAKNTVYLQMNSLKPEDTAVYYCAKTSRYLTGGGDYWGQGTQVTVSS”, the “polyreactivity (PSR sort gate)” value is reported as “high polyreactivity”.

For “QVQLVESGGGLVQAGGSLRLSCAASGRTFYGYAMGWYRQAPGKERELVASISRDASTNYADSVKGRFTISRDNAKNTVYLQMNSLKPEDTAVYYCAADIWYYRYPIYYYSYDYWGLGTQVTVSS”, the “polyreactivity (PSR sort gate)” value was “low polyreactivity”.

Turning to “QVQLVESGGGLVQAGGSLRLSCAASGRTFYGYPMGWYRQAPGKERELVAAISWSGGSTYYADSVKGRFTISRDNAKNTVYLQMNSLKPEDTAVYYCAAYTYSFRANHDYWGQGTQVTVSS”, the “polyreactivity (PSR sort gate)” value was “high polyreactivity”.

As for “QVQLVESGGGLVQAGGSLRLSCAASGRTFYGYTMGWYRPAPGKERELVAAITYSGDSTYYADSVKGRFTISRDNAKNTVYLQLNSLKPEDTAVYYCNAVGRYPVYWWGYYYWGQGTQVTVSS”, the “polyreactivity (PSR sort gate)” value is “high polyreactivity”.

For “QVQLVESGGGLVQAGGSLRLSCAASGRTFYHNAMGWYRPAPGKEWELVASIRWSGGSTYADSVKGRFTISRDNAKNTVYLQMNSLKPEDTAGYYCAKVGKSLYPVDYYSWGQGTQVTVSS”, the “polyreactivity (PSR sort gate)” value is given as “high polyreactivity”.

Consider “QVQLVESGGGLVQAGGSLRLSCAASGRTFYHYAIGWSRQAPGKEREMVAAITRRGGSTYYADSVKGRFTISRDNAKNTVYLQMNRLKPEDTAVYYCAVDGVTSRRYVYEYWGQGTQVTVSS”, for which the “polyreactivity (PSR sort gate)” value is given as “high polyreactivity”.

As for “QVQLVESGGGLVQAGGSLRLSCAASGRTFYHYAMGWYRQAPGKESELVAAIDWSTASTYYADSVKGRFTISRDNAKNTVYLQMNSLKPEDTAVYYCATDTAILINFVLYDYWGQGTQVTVSS”, the “polyreactivity (PSR sort gate)” value is reported as “low polyreactivity”.

“QVQLVESGGGLVQAGGSLRLSCAASGRTFYINAMGWYRQAPGKERELVAGITRGGSTNYADSVKGRFTISRDNAKNTVYLQMNSLKPEDTAVYYCNAARAERWGRGSYPEFDYWGQGTQVTVSS”: the “polyreactivity (PSR sort gate)” value was “high polyreactivity”.

With “QVQLVESGGGLVQAGGSLRLSCAASGRTFYINAMGWYRQAPGKERELVATISRSGGDTYYADSVKGRFTISRDNAKNTVYLQMNSLKPEDTAVYYCNARQYYYRSGAYASRYLYNYWGQGTQVTVSS”, the “polyreactivity (PSR sort gate)” value is recorded as “high polyreactivity”.

With “QVQLVESGGGLVQAGGSLRLSCAASGRTFYIYALGWYRQAPGKERELVAAISWGSGSTYYADSVKGRFTISRDNAKNTVYLQMNSLKPEDTAVYYCAAEYAYPSEWTYDYWGQGTQVTVSS”, the “polyreactivity (PSR sort gate)” value is given as “low polyreactivity”.

As for “QVQLVESGGGLVQAGGSLRLSCAASGRTFYIYAMGWYRQAPGKERALDAAITYGGGRTFYADSVKGRFTISRDNAKNTVYLQMNSLKPEDTAVYYCAATVRGKRSTYDYWGQGTQVTVSS”, the “polyreactivity (PSR sort gate)” value is listed as “high polyreactivity”.

With “QVQLVESGGGLVQAGGSLRLSCAASGRTFYIYAMGWYRQAPGKERELVAAISWSGGTTYYADSVKGRFTISRDHAKNTVYLQMNSLKPEDTAVYYCNVYPAYNYFDYDYWGQGTQVTVSS”, the “polyreactivity (PSR sort gate)” value is given as “high polyreactivity”.

Take “QVQLVESGGGLVQAGGSLRLSCAASGRTFYIYAMGWYRQAPGKLRQLVAVIRGSGGSTYYADSVKGRFTISRDNAKYTVYLQMNSQKPEDTAVYYCAARRYQYVWSLYNYWGQGTQVTVSS”: the “polyreactivity (PSR sort gate)” value was “high polyreactivity”.

For the sequence “QVQLVESGGGLVQAGGSLRLSCAASGRTFYKNTMGWYRQAPGKERELVAPITRRGGTPYYADSVKGRFTISRDNAKNTVYLQMNSLQPEDTAVYYCAVLTWYFLLQYGYYQEGDYWGQGTQVTVSS”, the “polyreactivity (PSR sort gate)” value is on record as “low polyreactivity”.

As to “QVQLVESGGGLVQAGGSLRLSCAASGRTFYKYAMGWYRQAPGKEREFVADISSRGGSTYYADSVKGRFTISRDNAKNTVYLQMNSLKPEDTAVYYCAARPRPRSANGMYYWGQGTQVTVSS”, the “polyreactivity (PSR sort gate)” value is given as “high polyreactivity”.

As for “QVQLVESGGGLVQAGGSLRLSCAASGRTFYKYAMGWYRQAPGKERELVAAISRRGGSTYYADSVKGRFTISRDNAKNTVYLQMNSLKPEDTAVYDCAADPDTKGFYVYRLVRVRYGYWGQGTQVTVSS”, the “polyreactivity (PSR sort gate)” value is given as “high polyreactivity”.

As for “QVQLVESGGGLVQAGGSLRLSCAASGRTFYKYAMGWYRQAPGKERELVAAITSGGGRTYYADSVKGRFTISRDNAKNTVYLQMNSLIPEDTAVYYCNAVLPLAKYEYDSWGQGTQVTVSS”, the “polyreactivity (PSR sort gate)” value was “high polyreactivity”.

In the case of “QVQLVESGGGLVQAGGSLRLSCAASGRTFYKYGMGWYRQAPGKERELVARINSNGGSTYYADSVKGRFTISRDNAKNTVYLQMNSLKPEDTAVYYCARSYVRSYGYYYWGKGTQVTVSS”, the “polyreactivity (PSR sort gate)” value is “low polyreactivity”.

On to “QVQLVESGGGLVQAGGSLRLSCAASGRTFYKYVMGWYRQAPGKERELVAAITRSGGGTYYADSVKGRFTISRDNAKNTVYLQMNSLKPEDTAVYYCAVSGRSYYRSDYWGQGTQVTVSS”, for which the “polyreactivity (PSR sort gate)” value was “high polyreactivity”.

For “QVQLVESGGGLVQAGGSLRLSCAASGRTFYLYAMGWYRQAPGKEREFVAAISWSTGSTYYADSVKGRFTISRDNAKNTVYLQMNSLKPEDTAVYYCAASTFTGYPKMYYWGQGTQVTVSS”, the “polyreactivity (PSR sort gate)” value was “high polyreactivity”.

For the sequence “QVQLVESGGGLVQAGGSLRLSCAASGRTFYLYAMGWYRQAPGKERELVAAITFNGGSTYYADSVKGRFTISRDNAKNTVYLQMNSLKPEDTAVYYCAARLSKRSGYYYWGQGTQVTVSS”, the “polyreactivity (PSR sort gate)” value is “high polyreactivity”.

“QVQLVESGGGLVQAGGSLRLSCAASGRTFYNNAMGWDRQAPGKERELVATINNRGGPTYYADSVKGRFTISRDNAQNTVYFQMNSLKPEDTAVYYCAASGWHGYNYWGQGTQVTVSS”: the “polyreactivity (PSR sort gate)” value is listed as “high polyreactivity”.

Consider “QVQLVESGGGLVQAGGSLRLSCAASGRTFYPNAMGWYRQAPGKERELVAAITTDGSTYYADSVKGRFTISRDNAKNTVYLQMNSLKPEDTAVYYCAARGFWWPYTYYYWGHGTQVTVSS”, for which the “polyreactivity (PSR sort gate)” value was “high polyreactivity”.

“QVQLVESGGGLVQAGGSLRLSCAASGRTFYPNAMGWYRQAPGKERELVAAITWRSGSTYYADSVKGRFTISRDNAKNTVYLQMNSLKPEDTAVYYCNADSDYPYYPGKFDYWGQGTQVTVSS”: the “polyreactivity (PSR sort gate)” value is “low polyreactivity”.

As to “QVQLVESGGGLVQAGGSLRLSCAASGRTFYPNTMGWYRQAPGKERELVATITRSGGTTYADSVKGRFTISRDNAKNTVYLQMHSLKPEDTAVYYCNADQRRYYWLVSQRYDYWGQGTQVTVSS”, the “polyreactivity (PSR sort gate)” value was “low polyreactivity”.

Regarding “QVQLVESGGGLVQAGGSLRLSCAASGRTFYPYAMGWYRQAPGKERELVAAINRRGGSTYYADSVKGRFTISRDNAKNTVYLQMNSLKPEDTAVYYCAAKTTTPYRYIYYYWGQGTQVTVSS”, the “polyreactivity (PSR sort gate)” value is on record as “high polyreactivity”.

Turning to “QVQLVESGGGLVQAGGSLRLSCAASGRTFYPYAMGWYRQAPGKERELVAAITWSGGSTYYADSVKGRFTISRDNAKNTVYLQMNSLKPEDTAVYYCNATYEASFYYEYDYWGQGTQVTVSS”, the “polyreactivity (PSR sort gate)” value was “low polyreactivity”.

On to “QVQLVESGGGLVQAGGSLRLSCAASGRTFYRNAMGWSRQAPGKEREFVAVISVSGGSTYYADSVKGRFTISRDNAKNTVYLQMISLKPEDTAVYYCAKRGPVRQTANDYWGPGTQVTVSS”, for which the “polyreactivity (PSR sort gate)” value is given as “low polyreactivity”.

As for “QVQLVESGGGLVQAGGSLRLSCAASGRTFYRNAMGWYRQAPGKEREFVASIDWSGGSTYYADSVKGRFTISRDNAKNTVYLQMNSLKPEDTAVYYCAAELDYFPGYDYWGQGTQVTVSS”, the “polyreactivity (PSR sort gate)” value is on record as “low polyreactivity”.

“QVQLVESGGGLVQAGGSLRLSCAASGRTFYRNAMGWYRQAPGKERELVAAITWSGVSTYYADSVKGRFTISRDNAKNTVYVQMNSQKPEDTAVYYCARGRVLRNGHYFQLRNYDYWGQGTQVTVSS”: the “polyreactivity (PSR sort gate)” value was “high polyreactivity”.

On to “QVQLVESGGGLVQAGGSLRLSCAASGRTFYRNAMGWYRQAPGKERELVASIRRNGGSTYYADSVKGRFTISRDNAKNTVYLQMNSLKPEDTAVYYCAAKFYWRGQSFRSGNFYWGQGTQVTVSS”, for which the “polyreactivity (PSR sort gate)” value is reported as “high polyreactivity”.

Regarding “QVQLVESGGGLVQAGGSLRLSCAASGRTFYRNVMGWYRQEPGKEREMVASIRTSGGSTYYADSVKGRFTISRDNAKNTVYLQMNSQKPEDTAVYYCATRVFVYPYRRYSHYDYWGLGTQVTVSS”, the “polyreactivity (PSR sort gate)” value was “high polyreactivity”.

“QVQLVESGGGLVQAGGSLRLSCAASGRTFYRYAMGWYRQAAGTERELVAAISRSGGSTYYADSVKGRFTISRDHAKYTVYLQMNSLKPQDTAVYYCAAGYDGYKQGGGGYWGQGTQVTVSS”: the “polyreactivity (PSR sort gate)” value is reported as “high polyreactivity”.

“QVQLVESGGGLVQAGGSLRLSCAASGRTFYRYAMGWYRQAPGKEREFVAAISGSGGRTYYADSVKGRFTISRDNAKNTVYLQMNSLKPEDTAVYYCNAYPHAYTGSTREGDYWGQGTQVTVSS”: the “polyreactivity (PSR sort gate)” value is reported as “high polyreactivity”.

“QVQLVESGGGLVQAGGSLRLSCAASGRTFYRYAMGWYRQAPGKEREFVATISRSGGSTFYADSVKGRFTISRDNAKNTVYLQMNSLKPEDTAVYYWAAVGWYPYQMVYWGQGTQVTVSS”: the “polyreactivity (PSR sort gate)” value is given as “high polyreactivity”.

Turning to “QVQLVESGGGLVQAGGSLRLSCAASGRTFYRYAMGWYRQAPGKERELVAAIRWSGGSTYYADSVKGRFTISRDNAKNTVYLQMNSLKPEDTAVYYCAARAIQLVDGRYKVRMDYWGQGTQVTVSS”, the “polyreactivity (PSR sort gate)” value was “low polyreactivity”.

As for “QVQLVESGGGLVQAGGSLRLSCAASGRTFYRYVMGWYRQAPGKERELVAAIRSSGTSTYYADSVKGRFTISRDNAKNTVYLQMNSLKPEDTAVYYCARDSYRGYVYSLDYWGQGTQVTVSS”, the “polyreactivity (PSR sort gate)” value is on record as “high polyreactivity”.

Take “QVQLVESGGGLVQAGGSLRLSCAASGRTFYSNAMGWYRQAPGKERELVAAITFGGGSTYYADSVKGRFTISRDNAKNTVYVQMNSLKPEDTAVYYCAAEGYKYRFYYWGQGTQVTVSS”: the “polyreactivity (PSR sort gate)” value is “low polyreactivity”.

Turning to “QVQLVESGGGLVQAGGSLRLSCAASGRTFYSNAMGWYRQAPGKERELVASISYGGGTTHYADSVKGRFTISRDNAKNTVYLQINSVKPEDTAVYYCAADPEHQWESVTIGEYDYWGQGTQVTVSS”, the “polyreactivity (PSR sort gate)” value is “low polyreactivity”.
